Target: hUBF (upstream binding factor, RNA polymerase I transcription factor) (Homo sapiens) (UniProt P17480)
Assay: footprint
Conditions: apparent Kd, half-maximal binding; cooperative, Hill 2.7; 14 mM MgCl2, 50 mM KCl, pH 7.9, 30 C

Chain of hUBF (upstream binding factor, RNA polymerase I transcription factor) (Homo sapiens) (P17480 whole entry): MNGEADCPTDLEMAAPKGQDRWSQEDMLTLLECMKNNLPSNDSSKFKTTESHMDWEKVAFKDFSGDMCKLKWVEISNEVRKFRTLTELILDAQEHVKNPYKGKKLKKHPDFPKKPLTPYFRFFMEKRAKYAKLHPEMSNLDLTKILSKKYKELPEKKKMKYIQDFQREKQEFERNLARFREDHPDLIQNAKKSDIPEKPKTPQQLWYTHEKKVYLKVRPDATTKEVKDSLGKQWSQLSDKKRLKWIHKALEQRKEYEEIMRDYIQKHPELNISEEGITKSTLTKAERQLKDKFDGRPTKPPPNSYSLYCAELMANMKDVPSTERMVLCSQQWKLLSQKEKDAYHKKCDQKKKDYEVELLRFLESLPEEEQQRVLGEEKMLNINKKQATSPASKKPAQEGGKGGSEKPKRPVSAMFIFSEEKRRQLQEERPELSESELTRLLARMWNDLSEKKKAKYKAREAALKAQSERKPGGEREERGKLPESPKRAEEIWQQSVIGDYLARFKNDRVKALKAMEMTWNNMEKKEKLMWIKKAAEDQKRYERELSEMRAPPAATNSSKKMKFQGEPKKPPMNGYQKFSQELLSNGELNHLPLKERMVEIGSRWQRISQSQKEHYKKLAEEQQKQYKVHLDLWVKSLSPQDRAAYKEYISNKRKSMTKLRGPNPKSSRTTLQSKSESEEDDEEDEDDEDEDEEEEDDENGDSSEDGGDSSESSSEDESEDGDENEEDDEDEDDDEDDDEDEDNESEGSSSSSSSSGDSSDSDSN

Q: For “human rRNA gene promoter fragment -208 to +78 (EcoRI-BstEII of pSBr208)”, which Kd is on record?
A: Its Kd is 0.018 nM.

— patent US6500669
